Experimental data from the nanobody polyreactivity screen of Harvey et al. (2022).

Test: yeast display, Sf9 membrane polyspecificity reagent, FACS + sequencing; frameworks hold sequencing errors
Method in brief: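 Sorting gates, low and high (top ~1%), were placed on anti-HA fluorescence to track expression and on streptavidin fluorescence to track reagent binding. A clone's polyreactivity label is taken from the gate it came out of. The reagent was 10% biotinylated, detergent-solubilized Sf9 membrane, applied for 1 hour at 4 °C to galactose-induced yeast display cells.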

Sequence	polyreactivity (PSR sort gate)
QVQLVESGGGLVPAGGSLRLSCASSGIIFWVNAMGWYRQAPGNERELVAAIRSDGSTKYADSVKRRFTISRDKAKNTVYVQMNSLKPVDTALYYCAKRDYSYPWFRDYYYWGQGTKVTVSS	low polyreactivity
QVQLVESGGGLVQAGGSLRLSCAASGSIFYHNAMGWYRQAPGKERELVAAISYRTGRTYYADSVKGRFTISRDNAKNTVYLQMNSLKPEDTAVYYCAAPYSWGQGTQVTVSS	high polyreactivity
QVQLVESGGGLVQAGGSLRFSCAASGFTFSSNAMGWYRQAPGKERELVAAITASGASTYYADSVKGRFTISRDHAKNTVYLQMNSLKPEDTAVYYCAVKTSPRRYYWGQGTQVTVSS	high polyreactivity
QVQLVESGGGLVQAGGSLRLSCAASGRISAFNAMGWYRQAPGKERELVAAINVSGGNTYYADSVKGRFTISRDNAKNTVYLQMNSLKPEDTAVYYCAAERRRWGLDYYYWGQGTQVTVSS	high polyreactivity
QVQLVESGGGLVQAGGSLRLSCAASGSTFQSYAMGWYRQAPGKERELVAAISTSDTDRTYYADSVKGRFTISRDNAKNTVYLQMNSLKPEDTAVYYCNAEGTYRPEYDSWGQGTQVTVSS	low polyreactivity
QVQLVESGGGLVQAGGSLRLSCAASGRIYEYMGWYRQAPGKERELVAAISWRGGRTYYADSVKGRFTISRDNAKNTVYLQMNSLKPEDTAVYYCAAKTTYRYGYWGQGTQVTVSS	high polyreactivity
QVQHVESGGGLVQAGGSLRLSCAASGSIYISNAMGWYRQAPGKERELVAAITSSGGSTYDADSVKGRFTISRDNAKNTVSLQMNSLKPEDTAVYYCAARPGRNYYYWGQGTQVTVSS	high polyreactivity
QVQLVESGGGLVQAGGSLRLSCAASGSIFSYYTMGWYRQAPGKERELVAAISFRGTSTYYADSVKGRFTISRDNAKNTVYLQMNSLKPEDTAVYYCAKRALYYPTYPKYDTYNRYYWGQGTQVTVSS	high polyreactivity
QVQLVESGGGLVQAGGSLRLSCDASGIIFRGNSMGWYRQAPGKERELVAAISRSGRTNYADSVKGSFTISRDNAKNTVYLQMYSLKPEDTAVYYCAVDKRYGRVFGRDYDYWGQGTQVTESS	high polyreactivity
QVQLVESGGGLVQAGGSLRLSCAASGSTFATYTMGWYRQAPGKERELVATISRSGTTTYYADSVKGRFTISRDNAKYTVYLQMNSLKPEDTAVYYCNTLRAYWTYHFYGAVRDGYDYWGQGTQVTVST	low polyreactivity
QVQLVESRGGIVQAGGSLRLSCAASGRIFSRYAMGWSRQAPGKEREMVAAISWSGGSTFYADSVKGRFTISRDNAKNTVYLQMNSLKPEDTAVYDCAAYPRFYGGKDGEYGYWGQGTQVTVSS	high polyreactivity
QVQRVESGGGLDQARGSLRLSCAASGITLDRYDMGWYRQAPGKERELVAAISRSGVRTYYADSVKGRFTISRDNAKNTVYLQRNSLKPEDPAVYYCNKGYARRYASGYDYWGQGTQVTVSS	high polyreactivity
QVQLVESGGGLVQAGGSHRLRCAASGRIFWSNTMGWYRQAPGKERELVAAISGRGGSTYYADSVKGRFTISRDNAKNTVYLQMNSLKPEDTAVYYCAARYPAYYEAYDYWGQGTQVTVSS	low polyreactivity
QVQLVESGGGLVQAGARLRLSCAASVSTFQSNAMGWSRQAPGKERELVAAIDQSGGSTYYADSLKGRFTISRDNAKNTVYLQMNSLKPEYTAVYYCAARTSGYWFSYGSWGQGTQVTVSS	high polyreactivity
QVQLVESGGGLVQAGGSLRLSCAASGRTFKYYAMGWYRQAPGKERELVAAISWSGSSTNYADSVKGRFTISRDNAKNTVYLQMNSLKPEDTAVYYCAAATYRQFTGTYDYWGQGTQVTVSS	high polyreactivity
QVQLVESGGRLVQAGGSLRLICADSGGIFGRYAMGWSRQAHGKERELVAAISKNGDSTYYAYSVKGRFTISRDNAKNTVYLKMNSLKPEDTAVYYCAAAKYRPKYGKNDYLGQGTQVTVSS	low polyreactivity
QVQLVESGGGLVQAGGSLRLSCAASGSTFGRNTMGWYRQAPGKERELVAAITSGDTTTYADSVKGRFTISRDNAKNTVYLQMNSLKPEVTAVYYCAVDPVRGRDYSWMDYWGQGTQVTVSS	low polyreactivity
QVQLVESGGGLVQAGGSLRLSCAASGSTFYTNAMGWYRQAPGKERELVAAISYGGGSTYYADSVKGRFTISRDNAKNTVYLQMHSLKPEDTAVYYCAARAPEKSWWRYRYGYWGQGTQVTVSS	high polyreactivity
KVQLVESGGGLVQAGGSLRLSCAASGLILRRYAMGWSRQAPGKEREFVARITWSGSRTYYADSVKGRFTISRDYGKNTVYLQMKSLKPEDSAFYYCAAVGRLARRDYWGQGTQVSVSS	high polyreactivity
QVQLVESGGGLVQAGGSLRLSCAASGFTFNYYAMGSYRQAPGKERELVAAITWRSGRTSYADSVKGRFTISRDNAKNTVYLQMNSLKPEDTAVYYCAKYPIYSGLTRYGYWGQGTQVTVSS	high polyreactivity
QVQLVESGGGLVQAGGSLRLSCAASGRTIIYNTMGWYRQAPGKEREFVAAINWSGGSTYYADSAKGRFTISRDNAKNTVYLQMNSLKPEDTAVYYCNAEAGYYRALIYDYWGQGTQVTVSS	low polyreactivity
QVQLVESGGGLVQAGGSLRLSCAASGRIFSRYAMGWYRQAPGKERELVAAISRNGGSTYYADSVKGRFTISRDNAKNTVYLQMNSLKPEDTAVYYCNARGNQAVNGYEYWGQGTQVTVSS	high polyreactivity

Sequence	polyreactivity (PSR sort gate)
QVRLVESCGGLVQAGGSLRLSCAASGITFQYNAMGWYRQAPGKERELVATIRRGGITKYADSVKGRFTISRDNAKNTVYLQMNSLKPEDTAVYYCNADWVWRYSSDFDYWGQGTQVTVSS	low polyreactivity
QVQRVESGGGLVQAGGSLRLSCAASGLTFRRYGMGWYRQAPGKEREWVASISSRGGNTYYADSVKGRLTISRDKAKNTVYLQMNSRKPEETAVYYCAARHVLYGYYLYDYWGQGTQVTVSS	high polyreactivity
HFQLVESGGGIVQAGGSLRLSCAASGRTCFYNAMGWYRQAPGKERELVAAISWSGGSTYYADSVKGRFTISRDNAKNPVSLQMNSLNREDTAVYYCNAAYGRRYDYWGQGTQVTVSS	high polyreactivity
QVQLVESGGGLVQAGGSLRLSCAASGRIFQGYAKGWYRQAPGKEREFVAAITASGGTTYYADSVKGRFTISRDNAKNTVYLQMNSLKPEDTAVYYCAKYRYTVAGYNYWGQGTQVTVSS	high polyreactivity
QVQLVESGGGLVQAGGSLRLSCAASGSTFYRYAMGWYRQAPGKERELVAAITSAGSTNYADSVKGRFTISRDNGNNTVYLQMYSLKPVDTAVYYCAADHGRPYFSYDYWGQGSQVTVSS	low polyreactivity
QVQLVESGGGLVQAGGSLRLSCAASGRIFKSYDIGWYRQAPGKEMELVSAISQSGGGTYYADSVKGRFTISRDNAKNTVYLQMNSLKPEDTAVYYCAAYRRVNRYQKIDNYWGQGTQVTVSS	high polyreactivity
QVQLVESGGRLVQAGGSLRLSCAASGSIFYDNAMGWYRQAPGKERELVAVITVSGDSTYYADSVKGRFTISRDNAKNTVYLQMNSLKPEDTAVYYCNTDAISGSHFWRYITFGYLDDYWGQGTQVTVSS	low polyreactivity
QVQLVESGGRLVQAGGSLRLSCAASGRNFGVNAMGWYRQAPGKERELVAAISVSGDSTYYADSVKGRFTISRDNAKNTVYLQMNSLKPEDTAVYYCNAGYTFVPADLTDEYYWGQGTQVTVSS	low polyreactivity
QVQLVESGGGLVQAGGSLRLSCAASGYTFRTNVMGWYRQAPGKERELVAAISSDGSTNYADSVKGRFTISRDNAKNTVYLQMNSLKPEDTAVYYCAAPWTQILDYWGQGTQVTVSS	low polyreactivity
QVQLVESGGGFVQAGGSLRLICAASGSILHSYSMGWYRQAPGKERELVAAISGSGGSTYYADSVKRRFTISRDNAKNTVYLQMNSLKPEDTAVYYCAAVWSRADRYYYWGQGTQVTVSS	low polyreactivity
QVQLVESGGGLVQAGGSLRLSCAASGSTFYAYTMGWYRQAPGKERELVADISRSGGSTYYADSVKGRFTISRDNAKNTVYLQMNSLKPEDTAVYYCAAASSYYRGHYDYWVQGTQVTVSS	high polyreactivity
QVQLVESGGGLVQAGGSLRLSCAASGYTFENYVKGWYSQAPGKERELVAAISSRGGSTYYADSVKGRFTISRDNAKNTVYLQMNSLKPEDTAVYYCAARARQTGPYRSRYNYWGQGTQVTVSS	high polyreactivity
QVQLVESGGGLVQAGGSLRLSCAASGSTFQTYAMGWYRQAPGKERELVAAITWRGGSTYYADSVKGRFTISRDNAKTTVYLQMNSLKPEDTAVYSCAAKWHGAHDHRAAYESWGQGTQVTVSS	low polyreactivity
QVQLVESGVGLVQAGGSLRLSCAASGSIFLRNDMAWYRQAPGKERELVAGISSVGSTYYADSVKGRFTISRDNAKNTVYLQMNSLKPEDTAVYYCAAERWGNPTDYQFWRPYDYWGQGTQVTVSS	low polyreactivity
QVQLVESGGGLVQAGGSLRLSCAASGFTFESNAMGWYRQAPGKERELVAAITSSGGRTYYADSVKGRFTISRDNAKNTVYLQMNSLKPEDTAVYYCAATGKAPRESGGVYSMDWGQGTQVTVSS	low polyreactivity
QVQLEESCGGLVQAGGRLRLSCAASGSIFRFNVMGWYRHAPGKERDLVAAITRGDSTNYADSVKGRFTISRDNAKITVYLQMNILIQDDSAVYYCAAGYYYYLRDHDYWGQGTQVTVSS	low polyreactivity
QVQLVESGGGLVQAGGSLRLSCAASGSTFARNAMGWYRPAPGKERELVAAITNAGDTNYADSVKGRFTISRDNAKNTVYLQMNSLKPEDTAVYYCAADTRFYSGRGTVSGDYWGQGTQVTVSS	low polyreactivity
QVQLVESGGGLVQAGGSLRLSCAASGSTFQTNAMGWYRQAPGKERELVAAINSGGGTNYADSVKGRFTFSRDNAKYTVYLQMNSLKPEDSAVYYCAAAYFDFWGWLHDYWGQGTQVTVSS	low polyreactivity
QVQIVESGGGLVQAGGSLRLSCDASGSTFVRYAMGWYRQAHGKERELVAAISYRGGSTYYADSVKGRFTISRDNAKNTVYLQMNSLKPEDTAVYYCAAESRHVEGEYWGQGTQVTVSS	high polyreactivity
QVQLVESGGGLVQAGGSLRLSCAASGFTIYANAMGWYRQAPGKERELVAAISSNGGSTYYADSVKGRFTISRDNAKNTVYLQMKSLKPEDTAVYSCADYFGSVLRSTIYDYWGQGTQVTVSS	low polyreactivity
PVQLVESGGGLVQAGGSLRLSCAASGSTFKRYAMGWYRQAPGKERELVAAISSGGTTYYADSVTGRFTISRDNAKNTVYLQMISLKPEDSAVYDCIARKYGWDQRILIYDYWGQGTQVTVSS	high polyreactivity
